{"source": "patent US20150165067A1", "about": "(Eli Lilly, published 2015)", "binders": {"B1": {"name": "Antibody 1-Alexa488 (antibody, human IgG1, lambda, V domains shown)", "VH": "EVQLVQSGAEVKKPGASVKVSCKASGYMFTSYGISWVRQAPGQGLEWMGWVSTYNGDTNYAQKFQGRVTVTTDTSTSTAYMELRSLRSEDTAVYYCARVLGYYDSIDGYYYGMDVWGQGTTVTVSS", "VL": "QSVLTQPPSLSVAPGKTATFTCGGNNIGDKSVHWYRQKPGQAPVLVMYLDTERPSGIPERMSGSNFGNTATLTITRVEAGDEADYYCQVWDSGSDHVVFGGGTKLTVLG", "modifications": "Alexa488 label (sites not given)"}, "B2": {"name": "Antibody 1 (antibody, human IgG1, lambda, V domains shown)", "VH": "B1 VH", "VL": "B1 VL", "notes": "Human monoclonal antibody with a lambda light chain; also called naked Antibody 1; anti-FGFR3 antibody"}, "B3": {"name": "Conjugate 1 (antibody, human IgG1, lambda, V domains shown)", "VH": "B1 VH", "VL": "B1 VL", "modifications": "DM4 attached through the sulfo-SPDB linker to available lysine residues (positions not given); DAR 3.5 ± 0.5 for the whole antibody", "notes": "also called Antibody 1-sulfo-SPDB-DM4; the conjugate of the present invention"}}, "key": {"[1]": {"molecular_target": "human FGFR3 on RT-112 bladder tumor cells (wild type and FGFR3-TACC3 fusion receptors) (human) (UniProt P22607)", "experiment": "flow cytometry, 15 µg/mL Alexa488-labeled Antibody 1 on RT-112 cells, quantified with Quantum Simply Cellular beads"}, "[2]": {"molecular_target": "FGFR3-TACC3 fusion on RT-4 bladder tumor cells (TACC3 exon-4) (human, UniProt Q9Y6A5 140-838, limits assumed)", "experiment": "cell-based or functional assay"}, "[3]": {"molecular_target": "human FGFR3 S249C, endogenous on UMUC-14 bladder tumor cells (human) (UniProt P22607)", "experiment": "flow cytometry, 15 µg/mL Alexa488-labeled Antibody 1 on UMUC-14 cells, quantified with Quantum Simply Cellular beads"}, "[4]": {"molecular_target": "human FGFR3 Y373C, endogenous on KMS-11 multiple myeloma cells (human) (UniProt P22607)", "experiment": "flow cytometry, 15 µg/mL Alexa488-labeled Antibody 1 on KMS-11 cells, quantified with Quantum Simply Cellular beads"}, "[5]": {"molecular_target": "human FGFR3 wild type, endogenous on tumor cell lines (BFTC-905, KU-19-19, UMUC-3) (human) (UniProt P22607)", "experiment": "flow cytometry, 15 µg/mL Alexa488-labeled Antibody 1 on KU-19-19 cells, quantified with Quantum Simply Cellular beads"}, "[6]": {"molecular_target": "human FGFR3 wild type, endogenous on tumor cell lines (BFTC-905, KU-19-19, UMUC-3) (human) (UniProt P22607)", "experiment": "flow cytometry, 15 µg/mL Alexa488-labeled Antibody 1 on BFTC-905 cells, quantified with Quantum Simply Cellular beads"}, "[7]": {"molecular_target": "human FGFR3 on RT-112 bladder tumor cells (wild type and FGFR3-TACC3 fusion receptors) (human) (UniProt P22607)", "experiment": "cell-based or functional assay"}, "[8]": {"molecular_target": "human FGFR3 S249C, endogenous on UMUC-14 bladder tumor cells (human) (UniProt P22607)", "experiment": "cell-based or functional assay"}, "[9]": {"molecular_target": "T1, huFGFR3(IIIb), immobilized receptor (human, UniProt P22607-2 23-377, limits assumed)", "T1 construct": "Amine-coupled to a CM5 chip; also called human FGFR3(IIIb)", "T1 sequence (looked up)": "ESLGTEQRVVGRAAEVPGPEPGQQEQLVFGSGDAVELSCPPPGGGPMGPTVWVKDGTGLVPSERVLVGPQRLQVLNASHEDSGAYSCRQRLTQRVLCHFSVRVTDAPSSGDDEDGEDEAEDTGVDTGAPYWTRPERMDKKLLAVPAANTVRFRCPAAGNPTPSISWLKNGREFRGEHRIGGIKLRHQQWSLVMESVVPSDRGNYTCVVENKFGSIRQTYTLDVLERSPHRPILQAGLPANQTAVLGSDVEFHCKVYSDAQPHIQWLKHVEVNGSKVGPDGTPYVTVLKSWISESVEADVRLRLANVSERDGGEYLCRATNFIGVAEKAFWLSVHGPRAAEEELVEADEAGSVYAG", "experiment": "SPR (Biacore); the sentence names no antigen or format, the section is on immobilized huFGFR3(IIIb); naked Antibody 1, not Conjugate 1"}, "[10]": {"molecular_target": "T2, human FGFR3(IIIb) WT on BaF3 cells (human, UniProt P22607 23-808)", "experiment": "cell-based or functional assay"}, "[11]": {"molecular_target": "human FGFR3(IIIb) G372C on BaF3 cells (human, UniProt P22607 23-808)", "experiment": "cell-based or functional assay"}, "[12]": {"molecular_target": "human FGFR3(IIIb) Y375C on BaF3 cells (human, UniProt P22607 23-808)", "experiment": "cell-based or functional assay"}, "[13]": {"molecular_target": "human FGFR3(IIIb) R248C on BaF3 cells (human, UniProt P22607 23-808)", "experiment": "cell-based or functional assay"}, "[14]": {"molecular_target": "human FGFR3(IIIb) S249C on BaF3 cells (human, UniProt P22607 23-808)", "experiment": "cell-based or functional assay"}, "[15]": {"molecular_target": "T1, huFGFR3(IIIb), immobilized receptor", "experiment": "SPR, Biacore T200, 25 C, huFGFR3(IIIb) amine-coupled on CM5 chip, Conjugate 1 as analyte, 1:1 model, n=3", "protocol": "Use a CM5 chip containing immobilized receptor huFGFR3(IIIb) (generated using standard NHS-EDC amine coupling) on 2 flow cells. Prepare samples of Conjugate 1 by 2 fold serial dilutions starting at 60 nM, 6 dilutions total into running buffer. Immobilize receptor at 2.5 μg/mL (55 RU). Each analysis cycle consists of: (1) sample injection at 30 μL/min with 180 sec contact time, (2) dissociation by injection of buffer for 900 sec at 30 μL/min, (3) regeneration in a 0.5% solution of SDS contact time 30 sec at a flow rate of 40 μL/min. Process data using standard double-referencing and fit to a 1:1 binding model using Biacore® 2000 Evaluation software, version 4.1, to determine the association rate (kₒₙ, M⁻¹s⁻¹ units), dissociation rate (koff, s⁻¹ units), and Rmax (RU units). The equilibrium dissociation constant (KD) is calculated from the relationship of KD=koff/kₒₙ. KD is in molar units."}, "[16]": {"molecular_target": "human FGFR3 wild type, endogenous on tumor cell lines (BFTC-905, KU-19-19, UMUC-3) (human, UniProt P22607 23-806)", "experiment": "cell-based or functional assay"}, "[17]": {"molecular_target": "T3, human FGFR3 on RT-112 bladder tumor cells (wild type and FGFR3-TACC3 fusion receptors) (human, UniProt P22607 23-806)", "experiment": "cell-based or functional assay"}, "[18]": {"molecular_target": "T2, human FGFR3(IIIb) WT on BaF3 cells", "experiment": "cell-based or functional assay", "remark": "listed apart in the source"}, "[19]": {"molecular_target": "human FGFR3 on Kato-III gastric tumor cells (human, UniProt P22607 23-806)", "experiment": "cell-based or functional assay"}, "[20]": {"molecular_target": "T3, human FGFR3 on RT-112 bladder tumor …", "experiment": "cell-based or functional assay", "remark": "listed apart in the source"}, "human FGFR3(IIIb)-Fc": {"molecular_target": "T4, human FGFR3(IIIb)-Fc (human, UniProt P22607-2 23-377, limits assumed)", "T4 construct": "Coated on the MSD plate; not shown: Fc part", "T4 sequence (looked up)": "T1 sequence (looked up)", "experiment": "MSD electrochemiluminescence plate assay: blocking of ruthenium-labeled FGF1 (1 ug/mL, with heparin) binding to coated human FGFR3(IIIb)-Fc"}}}
{"binder": "B1", "values": [{"measurement": "FGFR3 cell surface expression (ABC)", "setting": "[1]", "result": 16000, "unit": "ABC"}, {"measurement": "internalization in RT-4 cells, cell-associated fluorescence by flow cytometry over 48 h", "setting": "[2]", "result": "~7", "unit": "fold over background"}, {"measurement": "FGFR3 cell surface expression (ABC)", "setting": "[3]", "result": 27000, "unit": "ABC"}, {"measurement": "FGFR3 cell surface expression (ABC)", "setting": "[4]", "result": 120000, "unit": "ABC"}, {"measurement": "FGFR3 cell surface expression (ABC)", "setting": "[5]", "result": "< 4000", "unit": "ABC"}, {"measurement": "FGFR3 cell surface expression (ABC)", "setting": "[6]", "result": 11000, "unit": "ABC"}, {"measurement": "internalization in RT-112 cells, cell-associated fluorescence by flow cytometry over 48 h (fold over background)", "setting": "[7]", "result": 7}, {"measurement": "internalization in UMUC-14 cells, cell-associated fluorescence by flow cytometry over 48 h (fold over control)", "setting": "[8]", "result": "> 9"}]}
{"binder": "B2", "values": [{"measurement": "Kd", "setting": "[9]", "result": 0.13, "unit": "nM"}, {"measurement": "IC50 for neutralizing FGF1 (51.6 nM)-induced 3H-thymidine incorporation in BaF3 cells", "setting": "[10]", "result": 4.2, "unit": "nM"}, {"measurement": "IC50 for neutralizing FGF9 (34.72 nM)-induced 3H-thymidine incorporation in BaF3 cells", "setting": "[10]", "result": 0.4, "unit": "nM"}, {"measurement": "IC50 for neutralizing FGF1 (51.6 nM)-induced 3H-thymidine incorporation in BaF3 cells", "setting": "[11]", "result": 4.81, "unit": "nM"}, {"measurement": "IC50 for neutralizing FGF1 (51.6 nM)-induced 3H-thymidine incorporation in BaF3 cells", "setting": "[12]", "result": 8.77, "unit": "nM"}, {"measurement": "IC50 for neutralizing FGF9 (34.72 nM)-induced 3H-thymidine incorporation in BaF3 cells", "setting": "[12]", "result": 1.42, "unit": "nM"}, {"measurement": "IC50 for neutralizing FGF1 (51.6 nM)-induced 3H-thymidine incorporation in BaF3 cells", "setting": "[13]", "result": 1.32, "unit": "nM"}, {"measurement": "IC50 for neutralizing FGF1 (51.6 nM)-induced 3H-thymidine incorporation in BaF3 cells", "setting": "[14]", "result": 2.17, "unit": "nM"}, {"measurement": "IC50 for neutralizing FGF9 (34.72 nM)-induced 3H-thymidine incorporation in BaF3 cells", "setting": "[14]", "result": 0.46, "unit": "nM"}]}
{"binder": "B3", "values": [{"measurement": "Kd", "setting": "[15]", "result": 0.823, "unit": "nM"}, {"measurement": "koff", "setting": "[15]", "result": 0.000187, "unit": "s⁻¹"}, {"measurement": "kon", "setting": "[15]", "result": 227000, "unit": "M⁻¹ s⁻¹"}, {"measurement": "Cytotoxicity Conjugate 1 IC50, BFTC-905 (bladder) cells, Cell Titer-Glo, 96 h", "setting": "[16]", "result": 2.7, "unit": "nM"}, {"measurement": "Cytotoxicity Conjugate 1 IC50, RT-112 (bladder) cells, Cell Titer-Glo, 96 h", "setting": "[17]", "result": 1.3, "unit": "nM"}, {"measurement": "cytotoxicity IC50 (nM), transfected Baf3-FGFR3(IIIb) cells", "setting": "[18]", "result": 2.5, "unit": "nM"}, {"measurement": "cytotoxicity IC50 (nM), Kato-III cells", "setting": "[19]", "result": 5.4, "unit": "nM"}, {"measurement": "cytotoxicity IC50 (nM), RT112 cells", "setting": "[20]", "result": 2.1, "unit": "nM"}, {"measurement": "IC50", "setting": "human FGFR3(IIIb)-Fc", "result": 3.6, "unit": "nM"}]}
